In patent US20070264678A1:

How the values were obtained:
[1] = target: PTK labeled tracer F-ADE(pY)LIPQQS; assay: binding curves as in Example 2 (FP), antibody at several labeling ratios
[2] = target: PTK labeled tracer F-ADE(pY)LIPQQS; assay: fluorescence polarization, direct binding curve: labeled antibody 10 nM to 9.8 pM against 1 nM tracer

fold variation of affinity for the tracer upon labeling [1] [fold] | EC50 [2] [nM] | Substance
< 2 |  | Anti p-Tyr antibody (anti-pY20) labeled with CS124-DTPA-Phe-NCS*Tb
 | 1 | Tb-chelate labeled PY72 (anti-phosphotyrosine) IgG antibody
